Experimental data as given in IntAct's records for PubMed 25910212.

B1: EF-hand domain-containing protein 1 (Homo sapiens), Q5JVL4 (parent)
chain: MVSNPVHGLPFLPGTSFKDSTKTAFHRSQTLSYRNGYAIVRRPTVGIGGDRLQFNQLSQAELDELASKAPVLTYGQPKQAPPADFIPAHVAFDKKVLKFDAYFQEDVPMSTEEQYRIRQVNIYYYLEDDSMSVIEPVVENSGILQGKLIKRQRLAKNDRGDHYHWKDLNRGINITIYGKTFRVVDCDQFTQVFLESQGIELNPPEKMALDPYTELRKQPLRKYVTPSDFDQLKQFLTFDKQVLRFYAIWDDTDSMYGECRTYIIHYYLMDDTVEIREVHERNDGRDPFPLLMNRQRVPKVLVENAKNFPQCVLEISDQEVLEWYTAKDFIVGKSLTILGRTFFIYDCDPFTRRYYKEKFGITDLPRIDVSKREPPPVKQELPPYNGFGLVEDSAQNCFALIPKAPKKDVIKMLVNDNKVLRYLAVLESPIPEDKDRRFVFSYFLATDMISIFEPPVRNSGIIGGKYLGRTKVVKPYSTVDNPVYYGPSDFFIGAVIEVFGHRFIILDTDEYVLKYMESNAAQYSPEALASIQNHVRKREAPAPEAESKQTEKDPGVQELEALIDTIQKQLKDHSCKDNIREAFQIYDKEASGYVDRDMFFKICESLNVPVDDSLVKELIRMCSHGEGKINYYNFVRAFSN
partner: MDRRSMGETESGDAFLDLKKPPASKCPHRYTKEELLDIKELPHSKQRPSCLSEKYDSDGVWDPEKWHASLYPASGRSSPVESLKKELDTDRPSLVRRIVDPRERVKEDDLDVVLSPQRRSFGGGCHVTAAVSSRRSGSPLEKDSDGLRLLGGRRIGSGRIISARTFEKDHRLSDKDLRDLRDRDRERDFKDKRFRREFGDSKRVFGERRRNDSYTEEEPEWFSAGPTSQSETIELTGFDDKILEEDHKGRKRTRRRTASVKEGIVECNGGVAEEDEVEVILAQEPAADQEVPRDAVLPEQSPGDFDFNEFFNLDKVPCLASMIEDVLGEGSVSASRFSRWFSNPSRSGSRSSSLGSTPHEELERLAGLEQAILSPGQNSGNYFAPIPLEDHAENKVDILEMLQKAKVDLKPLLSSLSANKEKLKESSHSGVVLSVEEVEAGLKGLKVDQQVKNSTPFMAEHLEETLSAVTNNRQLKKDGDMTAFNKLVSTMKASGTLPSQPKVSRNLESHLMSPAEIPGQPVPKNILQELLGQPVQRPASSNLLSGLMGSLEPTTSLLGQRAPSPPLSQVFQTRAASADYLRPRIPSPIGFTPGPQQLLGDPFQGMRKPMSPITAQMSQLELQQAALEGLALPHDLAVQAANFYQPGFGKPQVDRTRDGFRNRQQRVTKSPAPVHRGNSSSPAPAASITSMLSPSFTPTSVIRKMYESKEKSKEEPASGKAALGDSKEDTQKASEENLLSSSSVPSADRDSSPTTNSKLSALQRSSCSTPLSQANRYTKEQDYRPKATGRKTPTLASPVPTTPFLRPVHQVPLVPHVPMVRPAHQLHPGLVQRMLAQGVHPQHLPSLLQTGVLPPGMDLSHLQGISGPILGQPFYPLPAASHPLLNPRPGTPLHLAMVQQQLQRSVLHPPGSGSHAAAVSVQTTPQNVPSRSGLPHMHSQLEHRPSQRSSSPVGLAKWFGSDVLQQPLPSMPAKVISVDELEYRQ
B2: Sodium/myo-inositol cotransporter 2 (Homo sapiens), Q8WWX8-3 (parent)
chain: MVWWPVGASLFASNVGSGHFIGLAGSGAATGISVSAYELNGLFSVLMLAWIFLPIYIAGQVTTMPEYLRKRFGGIRIPIILAVLYLFIYIFTKISVDMYAGAIFIQQSLHLDLYLAIVGLLAITAVYTVAGGLAAVIYTDALQTLIMLIGALTLMGYSFAAVGGMEGLKEKYFLALASNRSENSSCGLPREDAFHIFRDPLTSDLPWPGVLFGMSIPSLWYWCTDQVIVQRTLAAKNLSHAKGGALMAAYLKVLPLFIMVFPGMVSRILFPDQVACADPEICQKICSNPSGCSDIAYPKLVLELLPTGLRGLMMAVMVAALMSSLTSIFNSASTIFTMDLWNHLRPRASEKELMIVGRVFVLLLVLVSILWIPVVQASQGGQLFIYIQSISSYLQPPVAVVFIMGCFWKRTNEKGAFWGLISGLLLGLVRLVLDFIYVQPRCDQPDERPVLVKSIHYLYFSMILSTVTLITVSTVSWFTEPPSKEMVSHLTWFTRHDPVVQKEQAPPAAPLSLTLSQNGMPEASSSSSVQFEMVQENTSKTHSCDMTPKQSKVVKAILWLCGIQEKGKEELPARAEAIIVSLEENPLVKTLLDVNLIFCVSCAIFIWGYFA
B3: U4/U6 small nuclear ribonucleoprotein Prp31 (Homo sapiens), Q8WWY3 (parent)
chain: MSLADELLADLEEAAEEEEGGSYGEEEEEPAIEDVQEETQLDLSGDSVKTIAKLWDSKMFAEIMMKIEEYISKQAKASEVMGPVEAAPEYRVIVDANNLTVEIENELNIIHKFIRDKYSKRFPELESLVPNALDYIRTVKELGNSLDKCKNNENLQQILTNATIMVVSVTASTTQGQQLSEEELERLEEACDMALELNASKHRIYEYVESRMSFIAPNLSIIIGASTAAKIMGVAGGLTNLSKMPACNIMLLGAQRKTLSGFSSTSVLPHTGYIYHSDIVQSLPPDLRRKAARLVAAKCTLAARVDSFHESTEGKVGYELKDEIERKFDKWQEPPPVKQVKPLPAPLDGQRKKRGGRRYRKMKERLGLTEIRKQANRMSFGEIEEDAYQEDLGFSLGHLGKSGSGRVRQTQVNEATKARISKTLQRTLQKQSVVYGGKSTIRDRSSGTASSVAFTPLQGLEIVNPQAAEKKVAEANQKYFSSMAEFLKVKGEKSGLMST
partner: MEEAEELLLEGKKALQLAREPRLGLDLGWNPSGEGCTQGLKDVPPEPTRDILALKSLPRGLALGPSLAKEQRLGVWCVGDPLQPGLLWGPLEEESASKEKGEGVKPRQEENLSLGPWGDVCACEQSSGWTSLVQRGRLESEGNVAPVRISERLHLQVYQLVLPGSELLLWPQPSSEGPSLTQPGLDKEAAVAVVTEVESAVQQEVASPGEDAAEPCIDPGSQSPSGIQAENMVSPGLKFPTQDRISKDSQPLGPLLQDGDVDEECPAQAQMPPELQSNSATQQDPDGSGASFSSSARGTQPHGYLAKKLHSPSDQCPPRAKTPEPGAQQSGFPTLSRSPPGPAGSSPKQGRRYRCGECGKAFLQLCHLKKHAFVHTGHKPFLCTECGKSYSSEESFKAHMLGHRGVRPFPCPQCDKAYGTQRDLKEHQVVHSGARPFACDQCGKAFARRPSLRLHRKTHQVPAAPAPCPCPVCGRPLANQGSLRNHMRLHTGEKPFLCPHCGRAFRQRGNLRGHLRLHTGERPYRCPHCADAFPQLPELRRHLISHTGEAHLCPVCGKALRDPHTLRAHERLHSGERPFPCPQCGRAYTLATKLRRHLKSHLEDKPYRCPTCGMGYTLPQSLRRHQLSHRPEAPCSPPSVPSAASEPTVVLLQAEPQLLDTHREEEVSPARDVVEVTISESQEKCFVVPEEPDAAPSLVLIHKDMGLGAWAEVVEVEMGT
B4: Beta-crystallin A4 (Homo sapiens), P53673 (parent)
chain: MTLQCTKSAGPWKMVVWDEDGFQGRRHEFTAECPSVLELGFETVRSLKVLSGAWVGFEHAGFQGQQYILERGEYPSWDAWGGNTAYPAERLTSFRPAACANHRDSRLTIFEQENFLGKKGELSDDYPSLQAMGWEGNEVGSFHVHSGAWVCSQFPGYRGFQYVLECDHHSGDYKHFREWGSHAPTFQVQSIRRIQQ
partner: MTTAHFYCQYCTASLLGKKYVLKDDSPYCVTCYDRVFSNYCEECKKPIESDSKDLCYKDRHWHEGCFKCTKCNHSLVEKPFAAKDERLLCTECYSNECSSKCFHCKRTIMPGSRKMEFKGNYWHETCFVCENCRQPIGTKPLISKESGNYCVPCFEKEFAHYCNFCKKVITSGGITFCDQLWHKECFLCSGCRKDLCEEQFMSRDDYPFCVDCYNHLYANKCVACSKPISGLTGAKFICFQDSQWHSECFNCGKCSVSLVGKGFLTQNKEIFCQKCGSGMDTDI
B5: Corrinoid adenosyltransferase MMAB (Homo sapiens), Q96EY8 (parent)
chain: MAVCGLGSRLGLGSRLGLRGCFGAARLLYPRFQSRGPQGVEDGDRPQPSSKTPRIPKIYTKTGDKGFSSTFTGERRPKDDQVFEAVGTTDELSSAIGFALELVTEKGHTFAEELQKIQCTLQDVGSALATPCSSAREAHLKYTTFKAGPILELEQWIDKYTSQLPPLTAFILPSGGKISSALHFCRAVCRRAERRVVPLVQMGETDANVAKFLNRLSDYLFTLARYAAMKEGNQEKIYMKNDPSAESEGL
partner: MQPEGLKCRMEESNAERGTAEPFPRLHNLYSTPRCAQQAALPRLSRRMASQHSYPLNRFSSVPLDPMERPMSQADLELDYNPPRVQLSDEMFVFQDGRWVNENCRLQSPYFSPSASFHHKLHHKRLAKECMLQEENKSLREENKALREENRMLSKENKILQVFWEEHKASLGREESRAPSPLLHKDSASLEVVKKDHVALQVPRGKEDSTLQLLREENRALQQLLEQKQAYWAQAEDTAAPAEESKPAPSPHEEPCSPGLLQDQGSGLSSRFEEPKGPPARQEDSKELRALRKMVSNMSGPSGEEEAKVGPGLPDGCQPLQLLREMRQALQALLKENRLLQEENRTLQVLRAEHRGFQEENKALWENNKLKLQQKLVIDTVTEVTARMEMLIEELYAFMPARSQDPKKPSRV
B6: U4/U6 small nuclear ribonucleoprotein Prp31 (Homo sapiens), Q8WWY3 (parent)
chain: B3 chain
partner: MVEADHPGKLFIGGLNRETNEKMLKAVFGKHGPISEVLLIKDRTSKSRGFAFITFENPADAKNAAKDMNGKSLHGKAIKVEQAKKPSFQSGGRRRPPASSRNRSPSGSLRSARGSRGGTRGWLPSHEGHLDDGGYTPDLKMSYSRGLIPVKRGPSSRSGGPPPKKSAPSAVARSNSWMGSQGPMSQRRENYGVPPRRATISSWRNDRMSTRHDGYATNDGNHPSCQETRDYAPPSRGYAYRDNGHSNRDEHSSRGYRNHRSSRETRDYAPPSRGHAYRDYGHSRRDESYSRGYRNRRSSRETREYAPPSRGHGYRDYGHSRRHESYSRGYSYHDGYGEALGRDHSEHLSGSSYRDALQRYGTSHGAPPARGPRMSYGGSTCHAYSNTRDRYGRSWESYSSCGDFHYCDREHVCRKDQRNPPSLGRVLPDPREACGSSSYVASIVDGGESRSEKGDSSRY

Variants of: B1
Details: with 4et_human EIF4ENIF1, Q9NRA8

| Variant | effect of a mutation on the interaction |
| --- | --- |
| M448T | with no effect |

Variants of: B2
Details: with ima4_human KPNA3, O00505
Sequence of ima4_human KPNA3, O00505 (O00505 whole entry): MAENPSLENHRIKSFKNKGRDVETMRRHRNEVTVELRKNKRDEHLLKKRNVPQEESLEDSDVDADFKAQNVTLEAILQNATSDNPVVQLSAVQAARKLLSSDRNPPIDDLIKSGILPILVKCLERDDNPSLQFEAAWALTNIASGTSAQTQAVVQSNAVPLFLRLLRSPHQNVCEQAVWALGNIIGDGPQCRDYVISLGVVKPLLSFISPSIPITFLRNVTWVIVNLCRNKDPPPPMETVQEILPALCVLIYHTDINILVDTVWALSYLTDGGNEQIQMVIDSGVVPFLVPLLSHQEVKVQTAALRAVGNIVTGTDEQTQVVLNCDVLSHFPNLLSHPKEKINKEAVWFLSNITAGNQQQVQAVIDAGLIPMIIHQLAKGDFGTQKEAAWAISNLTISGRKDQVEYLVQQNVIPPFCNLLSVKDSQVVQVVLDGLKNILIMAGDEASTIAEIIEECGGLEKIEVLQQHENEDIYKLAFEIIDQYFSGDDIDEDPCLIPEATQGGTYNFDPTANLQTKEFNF

| Variant | effect of a mutation on the interaction |
| --- | --- |
| V118A | with no effect |

Variants of: B3
Details: with zn408_human ZNF408, Q9H9D4

| Variant | effect of a mutation on the interaction |
| --- | --- |
| L107V | with no effect |

Variants of: B4
Details: with fhl5_human FHL5, Q5TD97

| Variant | effect of a mutation on the interaction |
| --- | --- |
| F94S | disrupting interaction strength |
| V36M | disrupting interaction strength |
| L69P | disrupting interaction strength |

Variants of: B5
Details: with CBY2, Q8NA61-2

| Variant | effect of a mutation on the interaction |
| --- | --- |
| A135T | with no effect |
| R190C | with no effect |
| I96T | with no effect |
| R186Q | with no effect |

Variants of: B6
Details: with RBMY1A1, P0DJD3-2

| Variant | effect of a mutation on the interaction |
| --- | --- |
| L107V | with no effect |
